Assay results published in patent US6723697B2, “IL-16 antagonists” (Research Corporation Technologies, Inc., priority 1999, dated 2004).
Each block holds one molecule with its values, some of them ahead of it.

How the values were obtained:
IL-16 = target: T1, IL-16 (Mus musculus, UniProt O54824); assay: IL-16-induced migration of human T-cells; type: cell-based; conditions: for inhibition of IL-16-mediated biological activity (migration of human T-cells): concentration not given; for effect on IL-16-induced migration of human T-cells: any concentration
T1 construct: polyhistidine fusion protein containing the 119 C-terminal residues encoded by the previously reported murine cDNA; polyhistidine (cleaved yes); made in house
T1 sequence (O54824 1204-1322): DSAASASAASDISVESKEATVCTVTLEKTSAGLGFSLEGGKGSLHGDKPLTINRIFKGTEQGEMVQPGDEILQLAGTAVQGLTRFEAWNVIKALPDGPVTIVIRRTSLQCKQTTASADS

murine rIL-16 [1] = target: T2, murine rIL-16 (Mus musculus, UniProt O54824); assay: murine rIL-16-stimulated murine splenocyte migration, modified Boyden chamber; type: cell-based; conditions: rIL-16 10^-9 M; for IL-16-inhibitory activity (block of murine rIL-16-stimulated murine splenocyte migration): peptide concentration not given
T2 construct: polyhistidine fusion protein containing the 119 C-terminal residues encoded by the previously reported murine cDNA; polyhistidine (cleaved yes); made in house; host or cells: Escherichia coli strain HMS 174, vector pET16b
T2 sequence (O54824 1204-1322): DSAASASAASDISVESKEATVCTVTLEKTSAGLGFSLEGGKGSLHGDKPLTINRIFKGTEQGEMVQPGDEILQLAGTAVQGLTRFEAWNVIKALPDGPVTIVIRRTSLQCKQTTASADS
Protocol: (§1) Cell migration was assessed using a modified Boyden chamber. […] Cell migration is expressed as the mean % control migration.
(§2) Results from multiple experiments were analyzed using Student's t test for paired variables, and Tukey's test for multiple variables. A P value<0.05 was considered significant.
Peptide B (aa 341-352) includes the sequence WQCLLS (residues 344-349, SEQ ID NO:4) which is 100% conserved in all the species examined. Peptide A (aa 327-338) and peptide C (aa 351-362) correspond to the N-terminal and C-terminal flanks of peptide B, respectively. A random scrambled 12-residue peptide (LSKQKMVSREGT) designated peptide D (SEQ ID NO:20) was used a negative control for nonspecific effects of peptide administration on splenocyte motility. Criteria for the design of peptide D included overall hydrophilicity, neutral charge and no cysteine residues (to prevent possible dimer formation).
Murine spleens were harvested from healthy 8-week male BALB/c mice (Jackson Laboratory). Splenocytes were isolated by grinding spleens between fiysted slides in M199 culture medium (M. A. Bioproducts), supplemented with 0.4% bovine serum albumin, 22 mM HEPES buffer, 100 with U/ml of penicillin, 100 μg/ml streptomycin (M199-HPS). Cells were washed and erytbrocytes were lysed in Gey's solution. Splenocytes were washed twice in M199, and resuspended to a final concentration of 2×10^6 cells/ml in RPMI1640 medium (BioWhittaker) supplemented with 10% FBS, 100 U/ml of penicillin and 100 μg/ml of streptomycin. By flow cytometry, 25% of the isolated splenocytes within the lymphocyte-cloud were CD4^+.
Recombinant murine IL-16 was produced in Escherichia coli (strain HMS 174; Novagen) as a polyhistidine fusion protein containing the 119 C-terminal residues encoded by the previously reported murine cDNA (Keane et al., (1998) J. Immunol. 160: 5945-5954), using the bacterial expression vector pET16b (Novagen). The recombinant product corresponds to the secreted form of natural murine IL-16 following cleavage by caspase-3 (Zhang et al. (1998) J. Biol. Chem. 273:1144-1149). The rIL-16 was purified by metal chelation chromatography, and the polyhistidine tag was cleaved with factor Xa (New England Biolabs).

rIL-16 = target: T3, rIL-16 (Mus musculus, UniProt O54824); assay: IL-2R (CD25) induction on rIL-16-stimulated murine splenocytes, flow cytometry; type: cell-based; conditions: for % IL-2R+ CELLS: IL-16 + peptide, concentration not given (10^-6 M or 10^-7 M)
T3 construct: polyhistidine fusion protein containing the 119 C-terminal residues encoded by the previously reported murine cDNA; polyhistidine (cleaved yes); made in house; host or cells: Escherichia coli strain HMS 174, vector pET16b
T3 sequence (O54824 1204-1322): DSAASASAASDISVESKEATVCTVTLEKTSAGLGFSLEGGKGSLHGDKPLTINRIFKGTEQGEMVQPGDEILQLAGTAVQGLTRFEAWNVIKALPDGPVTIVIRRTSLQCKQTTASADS
Protocol: Induction of IL-2R (CD25) on rIL-16-stimulated murine splenocytes was detected by staining with FITC-conjugated anti-mouse IL-2R Ab (PharMingen). Cells were fixed with 10% formalin and stored at 4° C. in the dark before analysis with a Becton Dickinson FACScan 440 flow cytometer. The % IL-2R^+ cells was determined by subtracting the % isotype control positive from the total % positive events.
Peptides A (SEQ ID NO:15) and C (SEQ ID NO:19) were inhibitory at 10^−7 M, but not 10^−6 M. The negative control peptide D (SEQ ID NO:20) (10^−6 M) had no effect on rIL-16-stimulated IL-2R expression.
Murine splenocytes were incubated in control buffer, rIL-16 alone, or rIL-16 plus the indicated peptide. IL-2R expression was determined by flow cytometry using FITC-conjugated anti-IL-2R antibody. The % IL-2R^+ was determined by subtracting the FITC-conjugated isotype control antibody binding from the FITC-conjugated anti-IL-2R antibody binding. Isotype control antibody binding ranged from 1% to 4%.

[2] = target: T4, rIL-16 / GST-murine D3D4 fusion protein (Mus musculus, UniProt O54824); assay: in vitro binding of 35S-labeled murine rIL-16 to GST-murine D3D4 fusion protein; conditions: each peptide 10^-5 M, 10 ug/ml
T4 construct: murine IL-16 cDNA construct in pET-16b expressing the C-terminal 119 amino acids of IL-16; polyhistidine (pET-16b vector); made in house; host or cells: IL-16: coupled in vitro transcription-translation (TNT T7, Promega); GST-D3D4: E. coli, vector pGEX-5X.1
T4 sequence (O54824 1205-1322 limits assumed): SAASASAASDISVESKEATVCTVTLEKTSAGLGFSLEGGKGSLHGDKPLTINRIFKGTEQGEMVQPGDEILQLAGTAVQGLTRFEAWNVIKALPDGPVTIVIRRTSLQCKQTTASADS
Protocol: Complexes were isolated by centrifugation, then bound rIL-16 was released by boiling in SDS-PAGE buffer, resolved by SDS-PAGE, and detected by autoradiography. Specificity of the interaction between rIL-16 and D3D4 was assessed by competition with an excess of unlabeled rIL-16. ^35S-labeled rIL-16 incubated with GST (lane 1); ^35S-labeled rIL-16 incubated with GST-D3D4 (lane 2); ^35S-labeled rIL-16 plus excess unlabelled rIL-16 incubated with GST-D3D4 (lane 3); ^35S-labeled rIL-16 plus10 ug/ml peptide A (lane 4); ^35S-labeled rIL-16 plus 10 ug/ml peptide B (lane 5); ^35S-labeled rIL-16 plus 10 ug/ml peptide C (lane 6); ); ^35S-labeled rIL-16 plus 10 ug/ml peptide A and peptide B (lane 7). The arrow indicates the position of IL-16 on the gel. The identity of this band was re-confirmed by immunoblotting with anti-IL-16 antibody.
Radiolabeled murine IL-16 was prepared by in vitro translation and transcription (TNT T7, Promega) of a murine IL-16 cDNA construct in pET-16b expressing the C-terminal 119 amino acids of IL-16. Each coupled transcription-translation reaction was conducted in medium supplemented with [^35S]methionine according to the manufacturer's instructions.
A glutathione-S-transferase (GST)-murine D3D4 fusion protein was produced by subcloning the murine D3D4 domain cDNA sequences encoding the CD4 protein open reading frame from Phe^182 to Phe^372 into pGEX-5X.1 (Pharmacia). The GST-D3D4 fusion protein was purified according to the Pharmacia GST-fusion protein purification protocol using glutathione-conjugated Sepharose 4B beads in the presence of 2 mM dTT. […]
To investigate IL-16 interaction with the D3D4 of CD4, the GST-D3D4 fusion protein, or GST alone, was bound to the glutathione-conjugated Sepharose 4B beads. […] The GST-D3D4 or GST proteins were released from the beads by boiling in SDS gel loading buffer, and the supernatant was analyzed by 12% SDS-polyacrylamide gel electrophoresis (SDS-PAGE). The presence of ^35S-labeled mrIL16 was detected by autoradiography of the dried gel. […]

murine rIL-16 [3] = target: T2, murine rIL-16; assay: IL-16-stimulated T-lymphocyte migration, human CD4 D4 point mutants; type: cell-based; conditions: human CD4 D4 wild type or point mutant, rIL-16 10^-9 M
Protocol: Point mutations at Leu 348 and Leu 349 in human CD4 were prepared as follows.
Initially 100 ng of wild type human CD4 cDNA (Richard Axel, Columbia University, N.Y.) contained within the mammalian expression vector pcDNA3.1(−) (Invitrogen, Carlsbad, Calif.) was subjected to the polymerase chain reaction (PCR) in the presence of 125 ng of each set of primer pairs. PCR conditions were as follows:
The time for the elongation step varied according to the relationship of 2 minutes per kilobase of plasmid DNA length. The product was then subjected to restriction digestion with the enzyme Dpn for 1 h. at 37° C. Dpn is specific for methylated nucleotides and therefore will only cut the original wide type CD4-plasmid DNA. The transformation reaction required the addition of 1 μl of the digest to 50 μl of Epicurean Blue Eschericia coli which was incubated on ice for 30 min. and finally heat shocked 42° C., 45 sec to seal the supercompent bacteria. The resultant bacteria culture was selected on ampicillin plates and sequenced to confirm mutagenesis.
as §1, §2
(FIGS. 10A and 10B). […] (FIGS. 11A and 11B).

[4] = first line of the peptide's pair
[5] = second line of the peptide's pair

Molecule: DSGQVLLE (OTHER INFORMATION: Description of Artificial Sequence:IL-16 antagonist peptide) [aa 351-358 of human CD4]
- inhibition of IL-16-mediated biological activity (migration of human T-cells) (IL-16): failed to inhibit

Molecule: TSPKLMLSLKLENKEA (OTHER INFORMATION: Description of Artificial Sequence:IL-16 antagonist peptide) [16-mer of human CD4 D4]
- effect on IL-16-induced migration of human T-cells (IL-16): failed to effect

Molecule: VSEEQKVVQVVA (OTHER INFORMATION: Description of Artificial Sequence:IL-16 antagonist peptide) [peptide A, 12-residue peptide, aa 327-338 of mouse CD4 D4]
- inhibition of rIL-16-induced splenocyte migration (murine rIL-16 [1]; peptide 10^-6 M): inhibited
- IL-16-inhibitory activity (block of murine rIL-16-stimulated murine splenocyte migration) (murine rIL-16 [1]): IL-16-inhibitory activity
- % IL-2R+ CELLS (rIL-16; [4]): 21%
- % IL-2R+ CELLS (rIL-16; [5]): 37%
- inhibition of IL-16-stimulated induction of IL-2R (rIL-16; peptide 10^-7 M): inhibitory
- IL-16 binding to GST-D3D4 in the presence of peptide [2]: reduced to background

Continued, values first:

- IL-16-inhibitory activity (block of murine rIL-16-stimulated murine splenocyte migration) (murine rIL-16 [1]): IL-16-inhibitory activity
- % IL-2R+ CELLS (rIL-16; [4]): 22%
- % IL-2R+ CELLS (rIL-16; [5]): 26%
- inhibition of IL-16-stimulated induction of IL-2R (rIL-16; peptide 10^-6 M): completely inhibited
- inhibition of IL-16-stimulated induction of IL-2R (rIL-16; peptide 10^-7 M): completely inhibited
- IL-16 binding to GST-D3D4 in the presence of peptide [2]: reduced to background
Molecule: TGLWQCLLSEGD (OTHER INFORMATION: Description of Artificial Sequence:IL-16 antagonist peptide) [peptide B, 12-residue peptide, aa 341-352 of mouse CD4 D4]

- effect on IL-16-induced migration of human T-cells (IL-16): failed to effect
Molecule: KVSKREKAVWVLNPEA (OTHER INFORMATION: Description of Artificial Sequence:IL-16 antagonist peptide) [16-mer of human CD4 D4]

- concentration at which maximal inhibition was achieved (IL-16; dose curve, IL-16-induced migration of human T-cells): ≥ 10 µg/mL
- block of IL-16-induced migration of human T-cells (IL-16; peptide 10^-10 M): blocked all
Molecule: GMWQCLLSDSGQVLLE (OTHER INFORMATION: Description of Artificial Sequence:IL-16 antagonist peptide) [aa 343-358 of human CD4 D4]

- inhibition of IL-16-mediated biological activity (migration of human T-cells) (IL-16): inhibited all
Molecule: GMWQCLLS (OTHER INFORMATION: Description of Artificial Sequence:IL-16 antagonist peptide) [aa 343-350 of human CD4]

- inhibition of IL-16-stimulated T-lymphocyte migration (murine rIL-16 [3]): maintained partial ability to inhibit
- inhibition of IL-16-stimulated T-lymphocyte migration (murine rIL-16 [3]; listed as Leucine 349 was conservatively substituted with Isoleucine): Partial inhibition
B1: NLTCEVWGPTSPKLMLSLKLENKEAKVSKREKAVWVLNPEAGMWQCLISDSGQVLLESNIKVLPTWSTPVQPM (peptide)
chain: NLTCEVWGPTSPKLMLSLKLENKEAKVSKREKAVWVLNPEAGMWQCLISDSGQVLLESNIKVLPTWSTPVQPM
modifications: OTHER INFORMATION: Description of Artificial Sequence:IL-16 antagonist peptide
notes: human CD4 D4 with Isoleucine substituted at position 349
